Several values for one entry are separate records, joined by “and”; a condition that tells them apart may be missing. Equal values may be shown once. Read-outs that look alike come from different tables or passages of the source. * marks the point of attachment. monopropargyl‑cryptophane‑A = monopropargyl-cryptophane-A, coupled to the azido-peptide by Cu(I)-mediated coupling; 3‑azidopropionyl = [N-]=[N+]=NCCC(=O)*
What was measured:
MMP-7 [1] = target: T1, MMP-7 (Homo sapiens, UniProt P09237); assay: fluorometric MMP-7 enzymatic assay (Trp fluorescence); format: biochemical
T1 construct: BIOMOL International LP, MMP-7 (recombinant, catalytic domain); purchased BIOMOL International LP
T1 sequence (P09237 95-267): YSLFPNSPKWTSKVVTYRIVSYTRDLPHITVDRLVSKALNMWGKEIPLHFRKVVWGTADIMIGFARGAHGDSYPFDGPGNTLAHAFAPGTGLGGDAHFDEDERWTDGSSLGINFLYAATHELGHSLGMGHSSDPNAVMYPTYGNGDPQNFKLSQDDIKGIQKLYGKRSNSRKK
Method: Fluorescence spectra of I and II dissolved in standard buffer (λex=295 nm) were measured in small volume, 1-cm pathlength quartz cuvettes at 298 K using a Varian Cary Eclipse fluorescence spectrophotometer operated with the Cary Eclipse Bio software package (1 nm steps, 5 nm excitation and emission slits). Kinetics data were collected at 30 s intervals using the same software on samples with controlled temperature and stirring.
For the fluorometric enzymatic assay, an aliquot (2 μL) of active MMP-7 (0.454 μg/μL) was added into 0.998 mL solution of ^129Xe biosensor I with known concentration at 298 K. Fluorescence spectra were collected from 310-450 nm. All reported fluorescence data are uncorrected and are roughly 5 nm red-shifted from the values obtained when the instrumental correction feature is employed. Trp fluorescence at 400 nm was analyzed as a function of time, since there was little contribution at this wavelength from monopropargyl-cryptophane-A fluorescence. The enzyme activity was calculated from the initial rate of decrease in Trp emission at 400 nm, over the time interval that corresponded to the first 10-15% completion of the reaction. The kcat/KM value for biosensor I was calculated by non-linear regression of the activity data by varying the biosensor concentration from 6-100 μM; double-reciprocal 1/v versus 1/[S] Lineweaver-Burk plots^49 gave a similar kcat/KM value.
In enzyme kinetics studies, the fluorescence spectrum of I was taken at 30 s intervals after addition of MMP-7 (FIG. 7b). A continuous decrease of Trp emission was observed. The change in fluorescence intensity at 400 nm was used to calculate the initial velocity (v) of the enzyme reaction. The v values determined by HPLC and fluorometric methods were in excellent agreement (Table 1), which validated using the fluorometric assay to monitor this enzyme reaction. The Trp fluorescence assays were easier to run, allowed continuous monitoring of the reaction, provided greater sensitivity, and required less material than HPLC-based UV-vis absorbance measurements.

MMP-7 [2] = target: T1, MMP-7; assay: MMP-7 enzymatic assay monitored by HPLC (UV-vis); format: biochemical
Method: (§1) At rt, an aliquot (2 μL) of active MMP-7 (0.454 μg/μL) was added into 0.998 mL of a freshly prepared solution of biosensor I at a known concentration in standard buffer. The extinction coefficient of I, ε=15,000 M^−1 cm^−1 at 280 nm in water, was determined from a solution containing the weighed sample. At approximately 3 min intervals, 70 μL aliquots were removed from the reaction mixture and immediately quenched with 30 μL of a 40 mM EDTA solution. Each aliquot was analyzed by HPLC with the gradient: time 0, A/B=75/25; 0-30 min, linear increase to A/B=45/55; 30-32 min, linear change to A/B=20/80; 32-42 min, A/B=20/80. The retention times for I and II were 15.6 min and 17.9 min, respectively. The enzyme activity was determined from the initial rate of increase in the concentration of cleaved sensor II, during the consumption of the first 10-15% of substrate I. The absorbance at 280 nm of the growing peak at 17.9 min was integrated and compared for each time point. Initial velocities were measured at substrate I concentrations of 6, 16, 28, 38, 48, 74 and 100 μM.
(§2) For the azidopeptide substrate 1, enzyme activity was determined similarly by HPLC with the gradient: time 0, A/B=90/10; 0-30 min, linear increase to A/B=60/40; 30-32 min, linear change to A/B=20/80; 32-42 min, A/B=20/80. Peak areas were monitored for the intact substrate 1 and cleaved hexapeptide product 3 at retention times of 17.0 and 10.3 min, respectively. Initial velocities were measured at substrate 1 concentrations of 6, 50, 100, and 870 μM.
The ability of MMP-7 to hydrolyze ^129Xe biosensor I was initially confirmed by HPLC analysis (FIG. 3a). A standard assay was performed by incubating a 1 mL reaction mixture of 32 nmol I and 42 pmol MMP-7 at 310 K. Reaction progress was monitored by analyzing aliquots of the reaction mixture at regular intervals. […] MALDI-TOF mass spectrometry identified these new peaks as the cleaved hexapeptide LWRSRK 3 and cryptophane-peptide product II, respectively. The peptide cleavage pattern agreed with previous assays using this substrate. […]

[3] = concentration dependence of fluorescence intensity (aggregation); format: physicochemical; settings: fluorescence intensity linear over 1-250 μM, standard buffer
Method: Solutions were at room temperature in standard buffer. The fluorescence intensity for each compound at a given wavelength and concentration was normalized to its value at the maximum biosensor concentration, in order to facilitate comparison and show linearity over a large concentration range.
Experiments were performed to identify the important contributions to the observed Trp fluorescence quenching. In the fully extended biosensor I (FIG. 1) cryptophane and Trp were separated by approximately 40 Å. Temperature dependence studies identified little contribution to Trp quenching from the cryptophane within the intact biosensor I. The observed decrease in Trp fluorescence at elevated temperatures (λem=358 nm, F/F0=0.3 at 353 K) was virtually identical to that seen with the Trp-containing hexapeptide 3, and was thus attributed to temperature-dependent solvent quenching by non-radiative decay processes. […] This was confirmed with I and II by comparing the concentration dependence of fluorescence intensity (λex=295 nm, λem=318 nm for cryptophane and λem=358 nm for Trp), after correcting for inner filter effects and dilution. Neither compound's fluorescence intensity deviated from linearity over the concentration range, 1-250 μM (FIG. 8). The absorption and fluorescence maxima were unchanged over this range.

MMP-7 [4] = target: T1, MMP-7; assay: MMP-7 enzyme kinetic parameters, Michaelis-Menten fit of initial velocities; format: biochemical
Method: as §1
(§3) The kcat/KM value for all peptide substrates was calculated based on the Michaelis-Menten equation (Equation 1) after fitting the activity data at varying substrate concentrations with a non-linear regression curve: […]
as §2
(§4) For the fluorometric enzymatic assay, an aliquot (2 μL) of active MMP-7 (0.454 μg/μL) was added into 0.998 mL solution of ^129Xe biosensor I with known concentration at 298 K. Fluorescence spectra were collected from 310-450 nm. […]

[5] = tested on: Trp-containing hexapeptide LWRSRK 3; assay: Stern-Volmer fluorescence quenching of hexapeptide 3 by cleaved biosensor II; format: binding; settings: 3 at 16 μM, II 0-120 μM, 298 K, standard buffer; listed as II
Method: Solution of 3 was titrated with 3.18 mM II, to achieve concentrations of II between 0 and 120 μM. Steady-state fluorescence measurements found the ratio of initial fluorescence, F0, to observed fluorescence, F, at each quencher concentration. The linear fit gave an R^2 value of 0.88, which indicated a dominant static quenching mechanism. The slope of this line gave the association constant, KS=9000 M^−1, for the II-3 complex.
Having ruled out a prevalent role for intra- and intermolecular interactions within or between biosensors, we sought further to explain the decrease in Trp fluorescence upon enzymatic cleavage. […] To examine this quenching mechanism, the steady-state fluorescence intensity of the hexapeptide LWRSRK 3 was measured as a function of the cleaved sensor II (putative quencher) concentration in standard buffer. This Stern-Volmer experiment could only be performed within a limited range of II concentrations, due to limitations in the quantity of material and the contribution of this compound to total fluorescence. […] All fluorescence spectra were corrected to remove contributions from cryptophane. The resulting fluorescence maximum at 358 nm, which corresponded to Trp emission of I, decreased with successive additions of II. […]

MMP-7 [6] = target: T1, MMP-7; settings: reported previously at 303 K; cited from earlier work
hexapeptide LWRSRK = target: T2, hexapeptide LWRSRK; assay: Stern-Volmer steady-state Trp fluorescence quenching; hexapeptide 3 (16 µM) titrated with II (0-120 µM), 298 K, standard buffer
T2 sequence (peptide): LWRSRK

[7] = substrate: CC(C)C[C@H](NC(=O)[C@H](C)NC(=O)[C@H](CC(C)C)NC(=O)[C@@H]1CCCN1C(=O)[C@H](CCCNC(=N)N)NC(=O)[C@H](CCCCN)NC(=O)[C@H](CCCNC(=N)N)NC(=O)CCN=[N+]=[N-])C(=O)N[C@@H](Cc1c[nH]c2ccccc12)C(=O)N[C@@H](CCCNC(=N)N)C(=O)N[C@@H](CO)C(=O)N[C@@H](CCCNC(=N)N)C(=O)N[C@@H](CCCCN)C(=O)O; assay: MMP-7 enzyme kinetic parameters, Michaelis-Menten fit of initial velocities; format: biochemical; settings: other: MMP-7 42 nM, 298 K, standard buffer
Method: as §1, §3, §2, §4

[8] = target: T3, azidopeptide N3-CH2CH2-CONH2-RKRPLALWRSRK
T3 chain: RKRPLALWRSRK

[9] = target: T4, MMP-7-responsive 129Xe biosensor I (monopropargyl-cryptophane-A coupled to azidopeptide RKRPLALWRSRK)
T4 chain: RKRPLALWRSRK

[10] = MMP-7 42 nM, 298 K, standard buffer

Which “Initial velocity, fluorometric assay” value (MMP-7 [1]; Biosensor I 6 μM) does the source give for “Biosensor I: monopropargyl-cryptophane-A 7 coupled by [3+2] cycloaddition to azidopeptide 1 (RKRPLALWRSRK); MMP-7-responsive 129Xe biosensor ({monopropargyl‑cryptophane‑A (triazole via Cu(I) (3+2) cycloaddition)-3‑azidopropionyl}-RKRPLALWRSRK-OH)” here?
Its value is 0.9 pmol/s.

What about the “Initial velocity, fluorometric assay” value (MMP-7 [1]; Biosensor I 50 μM) of the same molecule?
Its value is 9 pmol/s.

And the “Initial velocity, fluorometric assay” value (MMP-7 [1]; Biosensor I 100 μM)?
The value was 8 pmol/s.

What about the “Initial velocity, HPLC assay” value (MMP-7 [2]; Biosensor I 6 μM) of the same molecule?
The value was 1 pmol/s.

And the “Initial velocity, HPLC assay” value (MMP-7 [2]; Biosensor I 50 μM)?
Its value is 10 pmol/s.

And the “Initial velocity, HPLC assay” value (MMP-7 [2]; Biosensor I 100 μM)?
The value was 7 pmol/s.

And the aggregation in solution [3]?
The aggregation in solution was “unlikely to aggregate”.

And the “fold lower Vmax relative to substrate 1” value (MMP-7 [4])?
Its value is 3.6 fold.

What about the Km (MMP-7 [4]; [10]) of the same molecule?
Its Km is 43 µM.

What about the Vmax (MMP-7 [4]; [10]) of the same molecule?
Its Vmax is 1.3e-08 M/s.

Which aggregation in solution [3] does the source give for “Biosensor II: monopropargyl-cryptophane-A 7 coupled to azidopeptide 2 (RKRPLA); MMP-7 cleaved product of I ({monopropargyl‑cryptophane‑A-3‑azidopropionyl (triazole link)}-RKRPLA-OH)” here?
The aggregation in solution was “unlikely to aggregate”.

And the “association constant KS of the II-3 complex” value [5]?
Its value is 9000 ± 1000 M⁻¹ and 9000 M⁻¹.

Which Km (MMP-7 [6]) does the source give for “dinitrophenyl-Arg-Pro-Leu-Ala-Leu-Trp-Arg-Ser” here?
Its Km is 26 µM.

B1: cleaved biosensor II (monopropargyl-cryptophane-A coupled to azidopeptide RKRPLA) (peptide)
peptide: {monopropargyl‑cryptophane‑A (via triazole, CuAAC)-3‑azidopropionyl}-RKRPLA-OH
With B1 as the molecule, how does the Ka (hexapeptide LWRSRK) read?
Its Ka is 9000 M⁻¹.

B2: MMP-7 (Homo sapiens) (protein)
chain: T1 sequence (P09237 95-267)
notes: BIOMOL International LP, MMP-7 (recombinant, catalytic domain); purchased BIOMOL International LP
For B2, which Km [7] is on record?
Its Km is 150 µM.

And the Vmax [7]?
Its Vmax is 2.82 µM/min.

What about the kcat/Km [7] of the same molecule?
Its kcat/Km is 7300 M⁻¹ s⁻¹.

What about the KM [8] of the same molecule?
Its KM is 150 µM.

And the Vmax [8]?
Its Vmax is 4.7e-08 M/s.

And the kcat/KM [8]?
The kcat/KM was 7300 M⁻¹ s⁻¹.

What about the KM [9] of the same molecule?
The KM was 43 µM.

And the Vmax [9]?
Its Vmax is 1.3e-08 M/s.

What about the “initial velocity v of proteolysis of biosensor I by MMP-7 (42 nM), fluorometric assay, 298 K; shown without a printed number” value [9] of the same molecule?
Its value is “v rises with [Biosensor I] from about 1 nM s-1 at about 6 µM to about 8-9 nM s-1 at 74-100 µM; the Michaelis-Menten fit line is still rising at 100 µM, no upper plateau inside the range”.

What about the kcat/KM [9] of the same molecule?
The kcat/KM was 7200 M⁻¹ s⁻¹.

— patent US8470587B2, “129Xe biosensors and their use” (The Trustees of the University of Pennsylvania, priority 2006, dated 2013)
